# Measured values as given in the supplement of paper PMC10724198.
# ± gives the standard deviation of the averaged measurements.
# System: Saccharomyces cerevisiae
# Assay: protein stability index of tFT-peptide fusion (C-terminal peptide) (PSI (0-1 scale)); higher = more stable (slower turnover)
# Conditions: genetic background: das1 deletion; temperature: 30 C
# Experimental: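 MPS profiling in S. cerevisiae of the tFT-X12 degron library: putative degron peptides plus stable controls, 12 aa, fused to the C-terminus of a sfGFP-mCherry timer. Cells are FACS-sorted into 8 mCherry/sfGFP bins and deep-sequenced. PSI runs from 0 (unstable) to 1 (stable). Backgrounds are wild type, das1Δ and doa10Δ at 30 °C, and wild type, das1Δ, cdc34-1 and cdc53-1 at 37 °C; 2-3 technical replicates each.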
# 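Note: PSI is a weighted mean of sequencing reads over stability bins, variants kept only with over 10 reads, mCherry proximal and sfGFP distal, peptide attached via GGGS linker.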
row,Sequence,protein stability index
1,SWWGDVVWFVVC,0.501 ± 0.015
2,SYGNGIPIRMLH,0.641 ± 0.013
3,SYLPSHVYIFLL,0.273 ± 0.032
4,TFLCSSLALAVI,0.338 ± 0.022
5,TGYRYVGRFFVV,0.588 ± 0.016
6,TLCFRLSWVLLV,0.144 ± 0.02
7,TLNKDILIIKCA,0.286 ± 0.035
8,TNFVVRLRFVLF,0.464 ± 0.016
9,TVRVVMLRLLFT,0.346 ± 0.035
10,VAFLWVAFCFSG,0.224 ± 0.03
11,VAIMSIWLVYML,0.341 ± 0.031
12,VALAVRVVVCGA,0.122 ± 0.039
13,VAWCVWCWWWAV,0.209 ± 0.021
14,VCLFWLFLWRIL,0.3 ± 0.027
15,VCLWVEVLIVLG,0.136 ± 0.03
16,VCPWGYCSEWGF,0.697 ± 0.023
17,VFCSVGVSLFFG,0.289 ± 0.04
18,VFFLFAVCSVLV,0.106 ± 0.029
19,VFFLRVHFWSFF,0.368 ± 0.029
20,VFFLVHFHLPMF,0.414 ± 0.031

row,Sequence,protein stability index
1,VFGFLVFYVCVR,0.153 ± 0.047
2,VFHMFGWCGGAR,0.673 ± 0.012
3,VFLFSLCIRLSR,0.141 ± 0.031
4,VFLVFSVWVVYR,0.233 ± 0.024
5,VFLVRTVTQISA,0.291 ± 0.025
6,VFRLFFLLVWLV,0.184 ± 0.023
7,VFRLLALLWRFF,0.62 ± 0.031
8,VFSLAFYLVLFF,0.346 ± 0.025
9,VFSRVLSVLLSA,0.405 ± 0.029
10,VFVGWVLCVVGG,0.143 ± 0.021
11,VFWLLVAVLRYW,0.243 ± 0.023
12,VGVSVVMVVEVP,0.0504 ± 0.005
13,VGVVLWWVVLMV,0.184 ± 0.024
14,VGYHCIVGVIFL,0.359 ± 0.036
15,VIRFNSAPRFLV,0.629 ± 0.026
16,VIWIRMISFFVW,0.2 ± 0.043
17,VIYNSALLLVRL,0.249 ± 0.031
18,VLAFFPLFFFLS,0.439 ± 0.033
19,VLGARWHWIYIA,0.501 ± 0.014
20,VLGLYSLLLSFF,0.524 ± 0.034

row,Sequence,protein stability index
1,VLGRCWWIVSDL,0.661 ± 0.016
2,VLISLVLLFRCW,0.262 ± 0.023
3,VLLMFFFRFSAL,0.545 ± 0.033
4,VLVFYFCFSFCS,0.126 ± 0.025
5,VLVLSFLYRMVK,0.312 ± 0.054
6,VLVSYAIVILYL,0.136 ± 0.043
7,VLVVLVVCRRAE,0.226 ± 0.028
8,VLYLQCITSAGH,0.273 ± 0.025
9,VMRMVWVLGVMC,0.251 ± 0.037
10,VPSMSIVWCRVL,0.417 ± 0.02
11,VPSPWVFSLFLH,0.604 ± 0.025
12,VQFISLVCLFRF,0.341 ± 0.045
13,VQWPLLVVGCMG,0.263 ± 0.029
14,VSFRISAIFVCV,0.216 ± 0.033
15,VSPATFLFYFFF,0.544 ± 0.02
16,VTFCFLFVWFLV,0.27 ± 0.028
17,VTGFGVAIVCVT,0.254 ± 0.044
18,VVFFFKFFLLRL,0.318 ± 0.031
19,VVGLVSIVQVIM,0.308 ± 0.023
20,VVGRWGFVVECW,0.254 ± 0.037

# Same assay, conditions: genetic background: das1 deletion; temperature: 37 C
row,Sequence,protein stability index
1,SWWGDVVWFVVC,0.7029 ± 0.0032
2,SYGNGIPIRMLH,0.728 ± 0.013
3,SYLPSHVYIFLL,0.4417 ± 0.0022
4,TFLCSSLALAVI,0.4985 ± 0.0021
5,TGYRYVGRFFVV,0.691 ± 0.016
6,TLCFRLSWVLLV,0.22 ± 0.014
7,TLNKDILIIKCA,0.45 ± 0.013
8,TNFVVRLRFVLF,0.522 ± 0.02
9,TVRVVMLRLLFT,0.528 ± 0.0076
10,VAFLWVAFCFSG,0.3883 ± 0.0035
11,VAIMSIWLVYML,0.497 ± 0.016
12,VALAVRVVVCGA,0.106 ± 0.0073
13,VAWCVWCWWWAV,0.351 ± 0.0049
14,VCLFWLFLWRIL,0.374 ± 0.013
15,VCLWVEVLIVLG,0.25 ± 0.014
16,VCPWGYCSEWGF,0.8015 ± 0.0031
17,VFCSVGVSLFFG,0.5138 ± 0.0017
18,VFFLFAVCSVLV,0.2738 ± 0.0011
19,VFFLRVHFWSFF,0.53367 ± 0.00033
20,VFFLVHFHLPMF,0.561 ± 0.01

row,Sequence,protein stability index
1,VFGFLVFYVCVR,0.282 ± 0.014
2,VFHMFGWCGGAR,0.77 ± 0.026
3,VFLFSLCIRLSR,0.289 ± 0.013
4,VFLVFSVWVVYR,0.357 ± 0.018
5,VFLVRTVTQISA,0.445 ± 0.015
6,VFRLFFLLVWLV,0.25 ± 0.0081
7,VFRLLALLWRFF,0.767 ± 0.029
8,VFSLAFYLVLFF,0.46 ± 0.015
9,VFSRVLSVLLSA,0.5429 ± 0.0039
10,VFVGWVLCVVGG,0.2762 ± 0.00081
11,VFWLLVAVLRYW,0.354 ± 0.0044
12,VGVSVVMVVEVP,0.0524 ± 0.0097
13,VGVVLWWVVLMV,0.28 ± 0.0034
14,VGYHCIVGVIFL,0.545 ± 0.0059
15,VIRFNSAPRFLV,0.7443 ± 0.0009
16,VIWIRMISFFVW,0.35 ± 0.013
17,VIYNSALLLVRL,0.407 ± 0.037
18,VLAFFPLFFFLS,0.5732 ± 0.0029
19,VLGARWHWIYIA,0.6636 ± 0.0012
20,VLGLYSLLLSFF,0.644 ± 0.016

row,Sequence,protein stability index
1,VLGRCWWIVSDL,0.763 ± 0.015
2,VLISLVLLFRCW,0.386 ± 0.016
3,VLLMFFFRFSAL,0.685 ± 0.02
4,VLVFYFCFSFCS,0.297 ± 0.0048
5,VLVLSFLYRMVK,0.507 ± 0.013
6,VLVSYAIVILYL,0.293 ± 0.029
7,VLVVLVVCRRAE,0.438 ± 0.0089
8,VLYLQCITSAGH,0.195 ± 0.021
9,VMRMVWVLGVMC,0.405 ± 0.0087
10,VPSMSIVWCRVL,0.511 ± 0.01
11,VPSPWVFSLFLH,0.73 ± 0.012
12,VQFISLVCLFRF,0.475 ± 0.036
13,VQWPLLVVGCMG,0.401 ± 0.0053
14,VSFRISAIFVCV,0.367 ± 0.0039
15,VSPATFLFYFFF,0.655 ± 0.0092
16,VTFCFLFVWFLV,0.413 ± 0.0092
17,VTGFGVAIVCVT,0.3722 ± 0.0024
18,VVFFFKFFLLRL,0.407 ± 0.033
19,VVGLVSIVQVIM,0.51 ± 0.027
20,VVGRWGFVVECW,0.394 ± 0.0095
